Reference: paper doi:10.1101/2025.09.09.675085 (bioRxiv, 2025)
Like-named read-outs stand apart in the source and are kept apart here.

B1: Selenomethionine-labelled tagless TipA (residues 26-572) (natural protein, Bdellovibrio bacteriovorus HD100, UniProt Q6MK73 26-572, looked up)
chain: ITDANPQIANKHLMPNAVRVQITQRGMKYFDNRLSDILGNLGVKLDEGYFPAMSYTAEKPINMDDFMDANPEMVKMYQQVRGLLTQWLVGFSMNDHQPTIEIGESGYVAKFSRFGLVTDELLMEALGKRDGAILAIELEVKKLTISTQSVVAWDTQNEFLGKAGFEDVTLQAADEEMPLKIRLPFYLRMNAMGGLEFEALEISNNFDSIPLGLKYGRLIVPQFAVEVNGKKFYVNNAELEKLFQAQAPMILEKVRGSIGDFARTQLPAMLNQKAKEFLGGSLEQVQDMAAPGQEPTDTRPAFKWGLQLQNLNLKKSLNVDLTTYVEDPVNSRSAPVKSHASRGAPTFNAVAQENYDIGLSVDRALINRVLQLAFERRNFEQIKQSDGSVLKLVATPLIDYVKTPAGVAVKPTETFVKLRVSVEIQPGSMFLKKTIVVDFDIIAKLRQLSDKTGMQMLLHSIDTDSLYLDDKYISVAGKLFKGKVREGVKDELKKRSANWATTEESLPGGLPLPPQILGIKLDINRVMMDPNGHLIMYLDYAKTGANK
modifications: selenomethionine-labelled
B2: TipA-His (TULIP invasion protein A, Bd2538, residues 26-572 with C-terminal octa-His tag) (natural protein, Bdellovibrio bacteriovorus HD100, UniProt Q6MK73 26-572, looked up)
chain: B1 chain

Assays:
crystal structure [1] = biological target: the molecule itself; experiment: crystal structure
crystal structure [2] = biological target: the molecule itself; experiment: crystal structure; remark: listed apart in the source

Protein | stoichiometry N (crystal structure [1]) | stoichiometry N (crystal structure [2])
B1 | 2 | –
B2 | – | 2
